Experimental data reported in article PMC3865534 (Leukemia, 2013).

Assays:
[1] = system: macrophages and osteoblasts in BM and endosteum; settings: previously confirmed; cited from earlier work
Excerpt: Using a similar immunohistochemistry approach, we examined whether the distribution of mature osteoblasts and macrophages within the BM and endosteal environment was disturbed by treatment with POL5551. […] In contrast to G-CSF (Figures 6c and d), treatmen ...

[2] = mouse, in vivo
[3] = system: hematopoietic progenitor cells (CFU-C) in C57BL/6 mice; test: CFU-C mobilization in C57BL/6 mice; assay type: in vivo
Procedure: (§1) POL5551 (Polyphor Ltd, Allschwil, Switzerland) was suspended in saline and either injected as bolus intraperitoneally (i.p.) or intravenously (i.v.) (0.5–100 μg/g body weight) or filled into continuous-release osmotic minipumps (model 2001, Alzet, Palo Alto, CA, USA), which were implanted under general anesthesia into a dorsal subcutaneous pouch. Mono-biotinylated POL5551 (Polyphor Ltd) was suspended in PBS (Life Technologies GmbH, Darmstadt, Germany) and injected i.p. rhG-CSF (Granocyte, Chugai, Frankfurt, Germany) was suspended in dH20 and diluted in saline to a final concentration of 0.5 μg/μl for i.p. injection. Mice received G-CSF injections every 12 h at a dose of 100 μg/kg for a total of nine doses i.p., referred to as ‘standard regimen' throughout the manuscript. Subsequent blood withdrawal and/or administration of POL5551 were performed directly after the last G-CSF injection on day 5.
(§2) For enumeration of CFU-C, aliquots of cells were incubated in duplicate in commercially available growth-factor-supplemented methyl cellulose medium for mouse CFU-C (Stem Cell Technologies, Vancouver, BC, USA or Cell Systems) as described.[23], [32] CFU-C (BFU-E, CFU-GM and CFU-GEMM) were enumerated after 6–8 days.

[4] = system: hematopoietic progenitor cells (CFU-C) in C57BL/6 mice; settings: Plerixafor in mice; cited from earlier work
Procedure: In this study, in vitro and in vivo properties of the novel CXCR4 antagonist POL5551 as a mobilizing agent were evaluated.

[5] = system: hematopoietic progenitor cells (CFU-C); test: Co-mobilization with Cyclophosphamide (CY); assay type: in vivo, mouse; settings: 5 mg/kg i.p. on day 8 after CY 200 mg/kg i.p.
Procedure: as §1, §2
(§3) Circulating CFU-Cs were enumerated at the indicated time points (mean±s.e.m., n=6–8 mice). […]

[6] = system: BM cells stimulated with CXCL12; test: F-actin polymerization assay after CXCL12 stimulation; assay type: cell-based, mouse; settings: pretreatment with 1 μM; CXCL12 100 ng/ml, 37 °C, n=3
Excerpt: F-actin was then stained with AlexaFluor568-conjugated phalloidin (Molecular Probes, Eugene, OR, USA) followed by flow cytometric analysis of the relative staining intensity.
(§4) (a, b) Analysis of the binding properties of POL5551 to CXCR4. […] CXCR4 Ab without agonist/antagonists (untreated) or isotypic control Ab (isotype) were used as positive and negative controls.

[7] = system: BM cells (CFU-C) migrating towards CXCL12; test: Transwell migration of BM CFU-C towards CXCL12; assay type: cell-based, mouse; settings: CXCL12 100 ng/ml, 4 h
Procedure: (§5) Input cells and cells from the lower chamber were plated into a colony assay; colony-forming unit culture (CFU-C) migration is expressed as the percent of migrated CFU-C of total CFU-C contained in the inoculum (input).
as §4

human CXCR4 = test: Receptor binding: competition with CXCR4 antibody clones 12G5/1D9 on Ao.o1_hCXCR4 cells; settings: 1 μM, concurrent incubation with antibody, 4 °C, 30 min, PBS/BSA 0.5%, flow cytometry, n=3
Excerpt: as §4
CXCR4 Ab without agonist/antagonists (untreated) or isotypic control Ab (isotype) were used as positive and negative controls.

[8] = system: hematopoietic progenitor cells (CFU-C) in diabetic C57BL/6 mice; test: CFU-C mobilization in Streptozotocin-induced diabetic mice; assay type: in vivo
Procedure: as §1, §2

[9] = system: hematopoietic progenitor cells (CFU-C); test: Co-mobilization with G-CSF; assay type: in vivo, mouse; settings: Plerixafor 5 or 10 mg/kg i.p. at end of standard regimen of G-CSF, n=6–8
Procedure: as §1, §2, §3

[10] = system: long-term repopulating HSCs; test: Limiting dilution competitive repopulating unit (CRU) assay; assay type: in vivo, mouse; settings: POL5551 30 mg/kg i.p.; G-CSF standard regimen; 16 weeks, n=5–10
Procedure: To determine the frequency of long-term repopulating HSCs in POL5551 versus G-CSF-mobilized blood, a limiting dilution CRU assay was performed.[34] Lethally irradiated CD45.2 hosts, 5–10 per group, received i.v. grafts consisting of limiting volumes (2.5, 5.0 and 10 μl) of CD45.1 POL5551 or G-CSF-mobilized blood cells together with 2.5 × 10^5 CD45.2 BM competitor cells. After 16 weeks, multilineage contribution of the CD45.1 graft-derived leukocytes was measured using flow cytometry. Animals with evidence of mobilized blood-derived (that is, CD45.1+) Gr1+, CD11b+, B220+ and CD3+ cells (⩾0.5% for each lineage) were considered positive for donor cell engraftment. CRU (LTRC) frequency was calculated using the LCALC software (Stem Cell Technologies).
Figure 5 Mobilization of CRU by POL5551. CRU frequency in POL5551 (30 mg/kg)-mobilized blood was determined using a CRU assay and compared with the CRU frequency in G-CSF (standard regimen)-mobilized blood. […] CRU engraftment, defined as multilineage engraftment of ⩾0.5% per lineage was quantified 16 weeks after transplantation. […] The mean CRU (LTRC) frequency (b) was calculated using Poisson's statistic (LCALC software, Stem Cell Technologies) (mean±upper/lower frequency).

white blood cells = test: Mobilization of mature leukocyte subsets; assay type: in vivo, C57BL/6 mice; settings: POL5551 4 h i.p., G-CSF standard regimen, Plerixafor 5 mg/kg i.p. 1 h
Procedure: (§6) Cell labeling was performed according to standard protocols using established marker panels for identification of different subsets in mouse hematopoietic tissues. Antibodies used in this study are detailed in Supplementary Methods. Subsequent acquisition and analysis were performed on a BD FACSCanto II cytometer with the FACSDiva software (BD Biosciences). Some data were further analyzed using the FlowJo software (Tree Star, Inc., Ashland, OR, USA). Cell isolation by flow sorting was performed on a BD FACS Aria II (BD Biosciences).
Figure S3: Mobilization of mature cell subsets by POL5551. A: Time-response of POL5551 mediated mobilization of WBCs. C57BL/6 mice received POL5551 (5 mg/kg) i.p. and blood was drawn at the indicated time points for blood count analysis (mean±SEM from 5 mice). B: Relative distribution of leukocytes in mobilized blood specimen. Blood was drawn before (baseline) and 4 hours after POL5551 injection i.p. (mean±SEM, n=5). […] C: Mobilization of T-, B-cells, monocytes and granulocytes. Blood composition was analyzed 4 hours after POL5551 injection (30 mg/kg, i.p. mean±SEM, n=6). […] D: Assessment of mobilized T-cell subsets.

[11] = system: PB-mobilized CFU-C migrating towards CXCL12; test: Ex vivo migration of mobilized CFU-C towards CXCL12; assay type: cell-based, mouse; settings: G-CSF standard regimen; n=5–8
Procedure: as §5

[12] = system: hematopoietic progenitor cells (CFU-C) in DBA/2 mice; test: CFU-C mobilization, DBA/2 relative to C57BL/6 mice; assay type: in vivo; settings: G-CSF standard regimen
Procedure: as §1, §2

c-kit+ cells = test: Immunophenotype of c-kit+ cells; assay type: in vivo, C57BL/6 mice; settings: G-CSF standard regimen, after 9th dose, mean +/- SEM, n=5
Procedure: as §6
C57BL/6 mice were mobilized with a bolus injection of POL5551 (5 or 30 mg/kg, i.p., n=5) or standard regimen of G-CSF (n=5). Saline treated animals (n=5) served as steady-state BM and PB donors. […] Percentage of positive cells was evaluated in comparison to isotype control. Mean fluorescence intensity was analyzed among c-kit+ cells.

O=P1(N(CCCl)CCCl)NCCCO1 (stereo not drawn) [CY, Cyclophosphamide]
Mobilization through collapse of HSC niche cellular components [1]: initiates collapse of HSC niche cellular components

c1cc(CN2CCCNCCNCCCNCC2)ccc1CN1CCCNCCNCCCNCC1 [Plerixafor]
Toxicity limiting dose [2]: could not be tested at doses >10 mg/kg because of its toxicity
Circulating CFU-C ([3]; Plerixafor 5 mg/kg i.p., n=4): 1300 CFU-C/ml
Dose at which mobilization peaks [4]: 5 mg/kg
CFU-C mobilized in combination with CY [5]: > 40 000 CFU-C per ml PB
Synergism with CY compared with CY plus G-CSF [5]: more pronounced than the combination of CY plus G-CSF
Inhibition of CXCL12-induced F-actin polymerization [6]: did not show an inhibitory effect
Inhibition of CXCL12-induced transwell migration of ssBM CFU-C ([7]; pre-incubation with 1 μM, n=3): completely blocked
Binding to N-terminus / interference with 1D9 binding (human CXCR4): without affecting the binding of 1D9
Binding to extracellular loops / interference with 12G5 binding (human CXCR4): interfered with 12G5 binding
Rescue of diabetes-induced hyporesponsiveness to G-CSF ([8]; Plerixafor 10 mg/kg i.p. after the ninth G-CSF dose, 1 h, n=3): could rescue diabetes-induced hyporesponsiveness to G-CSF
CFU-C mobilization in diabetic vs healthy mice ([8]; Plerixafor 10 mg/kg i.p., 1 h, n=3): markedly decreased (to approximately one-fourth)
Mobilization in combination with G-CSF [9]: noticeably enhanced

CXCL12: the natural ligand, the chemokine CXCL12
CXCL12-induced transwell migration of ssBM CFU-C ([7]; percent of input CFU-C, no inhibitor, n=13): ~6%

B1: G-CSF: rhG-CSF (Granocyte, Chugai, Frankfurt, Germany) (protein, UniProt P09919 31-207, looked up)
Granulocyte …: TPLGPASSLPQSFLLKCLEQVRKIQGDGAALQEKLVSECATYKLCHPEELVLLGHSLGIPWAPLSSCPSQALQLAGCLSQLHSGLFLYQGLLQALEGISPELGPTLDTLQLDVADFATTIWQQMEELGMAPALQPTQGAMPAFASAFQRRAGGVLVASHLQSFLEVSYRVLRHLAQP
CRU frequency in mobilized blood [10]: 34 CRU/ml
Circulating CFU-C ([3]; G-CSF standard regimen (100 μg/kg every 12 h, nine doses i.p.), n=58): 3800 CFU-C/ml
Frequency of neutrophils in mobilized vs non mobilized blood (white blood cells): most prominently in G-CSF-mobilized
Responsiveness of mobilized CFU-C to CXCL12 [11]: to a similar degree as was also observed for G-CSF-mobilized blood
Mobilization in DBA/2 relative to C57BL/6 mice [12]: at least six times more CFU-C in DBA/2 than in C57BL/6 mice
CFU-C mobilization in diabetic vs healthy mice ([8]; G-CSF standard regimen, n=6): markedly decreased (to approximately one-fourth)
CD26, RMFI of c-kit+ cells (c-kit+ cells): 291 +/- 56
CD26, positive c-kit+ cells (c-kit+ cells): 1,6 +/- 0,3%
CD29, RMFI of c-kit+ cells (c-kit+ cells): 1587 +/- 267
CD29, positive c-kit+ cells (c-kit+ cells): 38,0 +/- 6,2%
CD49e, RMFI of c-kit+ cells (c-kit+ cells): 772 +/- 39
CD49e, positive c-kit+ cells (c-kit+ cells): 55,2 +/- 3,5%
CD49f, RMFI of c-kit+ cells (c-kit+ cells): 642 +/- 104
CD49f, positive c-kit+ cells (c-kit+ cells): 24,2 +/- 4,7%
CD49d, RMFI of c-kit+ cells (c-kit+ cells): 1179 +/- 58
CD49d, positive c-kit+ cells (c-kit+ cells): 72,6 +/- 3,6%
VCAM1, RMFI of c-kit+ cells (c-kit+ cells): 384 +/- 73
VCAM1, positive c-kit+ cells (c-kit+ cells): 0,7 +/- 0,1%
Mobilization through collapse of HSC niche cellular components [1]: initiates collapse of HSC niche cellular components
